Results: patent US20030186281A1, “Modified tetracycline repressor protein compositions and methods of use” (priority 2001, published 2003)
Numbering of substitutions follows the chain as printed. Numbers in names are those of the source.

B1: Clone 4b (protein)
chain: MSRLDKSKVINSALELLNEVGIEGLTTRKLAQKLGVEQPTLYWHVKNKRALLDALAVEILARHHDYSLPAAGESWQSFLRNNAMSFRRALLRYRDRAKVHLGTRPDEKQYDTVETQLRFMTENGFSLRDGLYAISAVSHFTLGAVLEQQEHTAALTDRPAAPDENLPPLLREALQIMDSDDGEQAFLHGLESLIRGFEVQLTALLQIV
modifications: revTetR4b
B2: TetRrevAF6/12: revTetR(BD) L14F E15E G96V K98E V99L L101P (protein)
chain: B1 chain with L14F, R96V, K98E, V99L, L101P
modifications: Modified tetracycline repressor
notes: revTetR(BD) L14F E15E G96V K98E V99L L101P
B3: TetRrevAF1/4: revTetR(BD) N18K D95V G96V A97V (protein)
chain: B1 chain with N18K, D95V, R96V, A97V
modifications: Modified tetracycline repressor
notes: revTetR(BD) N18K D95V G96V A97V
B4: TetRrevAD2/13: revTetR(BD) E19D V20E E23K V57L I59N L60F A61A (protein)
chain: B1 chain with E19D, V20E, E23K, V57L, I59N, L60F, R96G
modifications: Modified tetracycline repressor
notes: revTetR(BD) E19D V20E E23K V57L I59N L60F A61A
B5: TetRrevAF1/5: revTetR(BD) L14V G24G Y93D R94G D95G (protein)
chain: B1 chain with L14V, Y93D, R94G, D95G, R96G
modifications: Modified tetracycline repressor
notes: revTetR(BD) L14V G24G Y93D R94G D95G
B6: TetRrevAF1/11: revTetR(BD) L14I V20V I22L R94H A97A V99E (protein)
chain: B1 chain with L14I, I22L, R94H, R96G, V99E
modifications: Modified tetracycline repressor
notes: revTetR(BD) L14I V20V I22L R94H A97A V99E
B7: TetRrevAD2/12: revTetR(BD) E23H D53Y A56A E58Q I59T (protein)
chain: B1 chain with E23H, D53Y, E58Q, I59T, R96G
modifications: Modified tetracycline repressor
notes: revTetR(BD) E23H D53Y A56A E58Q I59T
B8: TetRrevAD2/4: revTetR(BD) L17F N18R D53N I59M A61T (protein)
chain: B1 chain with L17F, N18R, D53N, I59M, A61T, R96G
modifications: Modified tetracycline repressor
notes: revTetR(BD) L17F N18R D53N I59M A61T
B9: TetRrevAtc4-10: revTetR(BD) I59N L60F A61G (protein)
chain: B1 chain with I59N, L60F, A61G, R96G
modifications: Modified tetracycline repressor
notes: revTetR(BD) I59N L60F A61G
B10: TetRrevAD2/2: revTetR(BD) L14I G21R A56V (protein)
chain: B1 chain with L14I, G21R, A56V, R96G
modifications: Modified tetracycline repressor
notes: revTetR(BD) L14I G21R A56V
B11: TetRrevAF2/7: revTetR(BD) Y93C D95E A97T (protein)
chain: B1 chain with Y93C, D95E, R96G, A97T
modifications: Modified tetracycline repressor
notes: revTetR(BD) Y93C D95E A97T
B12: Clone 11 (protein)
chain: B1 chain with R96G, V99E
modifications: revTetR11
B13: TetRrevAD1/6: revTetR(BD) N18Y E23V D53A A54S L55L A56S A61T H63Y (protein)
chain: B1 chain with N18Y, E23V, D53A, A54S, A56S, A61T, H63Y, R96G
modifications: Modified tetracycline repressor
notes: revTetR(BD) N18Y E23V D53A A54S L55L A56S A61T H63Y
B14: TetRrevAD2/6: revTetR(BD) N18Y G21E E23K (protein)
chain: B1 chain with N18Y, G21E, E23K, R96G
modifications: Modified tetracycline repressor
notes: revTetR(BD) N18Y G21E E23K
B15: TetRrevAF1/7: revTetR(BD) G96R L101I (protein)
chain: B1 chain with L101I
modifications: Modified tetracycline repressor
notes: revTetR(BD) G96R L101I
B16: TetRrevAD3/2: revTetR(BD) A56P E58H A61A H63Y (protein)
chain: B1 chain with A56P, E58H, H63Y, R96G
modifications: Modified tetracycline repressor
notes: revTetR(BD) A56P E58H A61A H63Y
B17: TetRrevAD1/2: revTetR(BD) N18Y L52L D53Y A54A I59T (protein)
chain: B1 chain with N18Y, D53Y, I59T, R96G
modifications: Modified tetracycline repressor
notes: revTetR(BD) N18Y L52L D53Y A54A I59T
B18: TetRrevAF1/8: revTetR(BD) G24G Y93N L101F G102D (protein)
chain: B1 chain with Y93N, R96G, L101F, G102D
modifications: Modified tetracycline repressor
notes: revTetR(BD) G24G Y93N L101F G102D
B19: TetRrevAF2/5: revTetR(BD) L14R E!9E D95H L101P (protein)
chain: B1 chain with L14R, D95H, R96G, L101P
modifications: Modified tetracycline repressor
notes: revTetR(BD) L14R E!9E D95H L101P
B20: TetRrevAF1/3: revTetR(BD) G24G D95A G96R (protein)
chain: B1 chain with D95A
modifications: Modified tetracycline repressor
notes: revTetR(BD) G24G D95A G96R

Tested on: tet operator sequence
Experiment: β-galactosidase activity of a tetracycline-regulated promoter in transformed E. coli with revTetR, in the presence and absence of anhydrotetracycline (atc)
Assay type: cell-based, Escherichia coli
Conditions: for Relative Activity of revTetR repressors, 28° C. ratio (non-repressed to repressed levels of transcription) / Relative Activity of revTetR repressors, 37° C. ratio (non-repressed to repressed levels of transcription): E. coli, absence vs presence of anhydrotetracycline; for β-Galactosidase Activity, Cultured Without ATC: RevTetR isolate cultured in the absence of anhydrotetracycline (ATC); for β-Galactosidase Activity, Cultured With ATC: RevTetR isolate cultured in the presence of anhydrotetracycline (ATC)
Protocol: The relative activity of revTetR repressors was determined at 28° C. and 37° C. for each clone by measuring β-galactosidase activity of a tetracycline-regulated promoter in transformed Escherichia coli in the presence and absence of the tetracycline analog, anhydrotetracycline (atc). The relative β-galactosidase activity was measured in standard Miller units and is presented as the percent of maximal expression as measured in the absence of Tet repressor. […] With respect to each mutant, as well as the wild-type controls, FIG. 2 provides two horizontal bars; the upper horizontal bar represents the level of β-galactosidase activity in the absence of anhydrotetracycline (−atc) while the lower horizontal bar represents the level of β-galactosidase activity in the presence of anhydrotetracycline (+atc).
The pool of mutated Tet repressors was cloned into plasmid pWH1411 (Baumeister et al., 1992, Proteins: Struct. Funct. Genet. 14: 168-77), which carries a TetR(B) gene, to provide a TetR(BD) chimera that included, as the amino-terminal portion, amino acid residues 1 to 50 of the TetR(B) gene and, as the carboxyl-terminal portion, amino acid residues 51 to 208 of the TetR(D) gene. The resulting plasmid pool was screened in a genetic assay which positively selects for a functional interaction between a Tet repressor and its cognate operator using E. coli strain WH207(λWH25) (the construction of this strain is described in detail in Wissmann et al., (1991) Genetics 128: 225-32). In this E. coli strain, tet operators direct the expression of divergently arranged β-galactosidase (lacZ) and Lac repressor (lacI) genes and the lac regulatory region directs the expression of a galactokinase (galK) gene on plasmid pWH414. Binding of Tet repressors to tet operators turns off transcription of the lacI and lacZ genes. The absence of Lac repressor allows for expression of the galK gene, which enables the E. coli strain to use galactose as a sole carbon source, which serves as one marker. The lacZ^− phenotype serves as a second marker. Thus, bacteria containing Tet repressors which bind to tet operators, have a Gal^+, lacZ^− phenotype. Bacteria containing wild-type Tet repressors have a Gal^+, lacZ^− phenotype in the absence of tetracycline. Modified “reverse” Tet repressors (revTetR) were selected based upon a Gal^+, lacZ^− phenotype in the presence of tetracycline.
The ability of each revTetR clone to bind to its cognate tet operator sequence and regulate transcription in a prokaryotic organism, Escherichia coli, in the presence and absence of a tetracycline analog (anhydrotetracycline, atc) was determined (Table 3, FIG. 2). The relative ratios of non-repressed to repressed levels of transcription for the 15 clones range from about 1.4-fold to about 50-fold at 28° C. and from about 1.3-fold to 40-fold at 37° C. For example, clone 4b comprising an amino acid substitution of glutamic acid for glycine at position 96 (e.g., SEQ ID NO. 24) repressed transcription 19-fold at 37° C. but to a less extent at 28° C. (5.7-fold, Table 3). Furthermore, clones 14, 5a and 7 comprising the arginine for glycine substitution at position 96 and further comprising a substitution or substitutions of serine for threonine at position 103 and valine for glutamic acid at position 114; leucine for proline at position 159; or glutamine to histidine at position 188, respectively, have pronouncedly different activities.
wherein each underlined base was present in approximately 85% of the oligonucleotides, while the remaining approximately 15% of the oligonucleotides contained one of the other three, non-wild type bases at that position. Similar mutagenic, partially randomized oligonucleotides were prepared for mutagenesis of the coding regions for amino acids 14-25 and 93-102. It was predicted that, according to a binomial distribution, each oligonucleotide would contain three to four mutations. […]

| Molecule | repression of transcription (ratio of non-repressed to repressed levels of transcription) (28° C.) | Relative Activity of revTetR repressors, 28° C. ratio (non-repressed to repressed levels of transcription) (28° C.) | repression of transcription (ratio of non-repressed to repressed levels of transcription) (37° C.) | Relative Activity of revTetR repressors, 37° C. ratio (non-repressed to repressed levels of transcription) (37° C.) | β-Galactosidase Activity, Cultured Without ATC | β-Galactosidase Activity, Cultured With ATC |
| --- | --- | --- | --- | --- | --- | --- |
| B1 | 5.7 fold | 5.7 | 19 fold | 19.0 | – | – |
| B2 | – | – | – | – | 82.6734 | 1.3259 |
| B3 | – | – | – | – | 81.2613 | 13.459 |
| B4 | – | – | – | – | 71.1255 | 1.3355 |
| B5 | – | – | – | – | 102.015 | 1.1988 |
| B6 | – | – | – | – | 96.2362 | 1.1578 |
| B7 | – | – | – | – | 73.5981 | 1.2806 |
| B8 | – | – | – | – | 32.2603 | 1.0068 |
| B9 | – | – | – | – | 69.401 | 11.275 |
| B10 | – | – | – | – | 94.968 | 5.2312 |
| B11 | – | – | – | – | 70.3163 | 2.8977 |
| B12 | 18 fold | 18.1 | 41 fold | 41.1 | – | – |
| B13 | – | – | – | – | 85.6043 | 2.5079 |
| B14 | – | – | – | – | 89.5374 | 3.8811 |
| B15 | – | – | – | – | 72.199 | 2.2753 |
| B16 | – | – | – | – | 60.3284 | 3.5891 |
| B17 | – | – | – | – | 84.85 | 1.6137 |
| B18 | – | – | – | – | 42.088 | 1.1643 |
| B19 | – | – | – | – | 97.8373 | 2.4067 |
| B20 | – | – | – | – | 59.773 | 1.2536 |
